This is an account of results in PMC11190312.

The target of assay [1] is SARS-CoV-2 N protein expressed in bacteria (N-Bact) (SARS-CoV-2) (UniProt P0DTC9). Kind of assay: SPR; single cycle kinetics, […]; global fit to 1:1 Langmuir model; […].
The target of assay [2] is SARS-CoV-2 N protein secreted by mammalian Expi293 cells (N-Expi) (SARS-CoV-2) (UniProt P0DTC9). Described as above.

The Kd is a measure of binding affinity in units of concentration. The low end stands for higher affinity, the high end for lower affinity. For orientation: koff means the rate constant with which the complex falls apart. The kon is the rate constant with which the complex forms. The low end stands for slow association, the high end for fast association.

On to “Recombinant human MASP-2 S618A, full-length, stabilized in proenzyme form”, for which, in assay [1], the dissociation constant (Kd) stood at 12.3 nM, the koff stood at 0.00015 s⁻¹ and the kon turned out to be 13900 M⁻¹ s⁻¹. In assay [2], this substance yielded a Kd of 13.7 nM, a dissociation rate constant (koff) of 0.000172 s⁻¹ and a kon of 14400 M⁻¹ s⁻¹.
